# Test results reported in paper PMC11441684, “A suboptimal OCT4-SOX2 binding site facilitates the naïve-state specific function of a Klf4 enhancer”.
# Residue numbers refer to the chain shown, from its start.
# B1: Nanog OS site probe (dsDNA)
# DNA 1: GTTACTCTGCAGCTACTTTTGCATTACAATGGCCTTGGTGAGACTGG
# DNA 2: CCAGTCTCACCAAGGCCATTGTAATGCAAAAGTAGCTGCAGAGTAAC
# B2: Klf4-E1 OS site probe (dsDNA)
# DNA 1: B1 DNA 1 with T17C, T25A, A26T, T30A, G31T
# DNA 2: B1 DNA 2 with C17A, A18T, T22A, A23T, A31G
# How the values were obtained:
# OCT4;SOX2 = OCT4;SOX2 (human;human, UniProt Q01860;P48431 1-360;1-317, |); test: EMSA; 19 nM OCT4, 16 nM SOX2; high occupancy; 12.5 mM K-Hepes pH 7.6, 50 mM NaCl, 1 mM MgCl2, 10% glycerol, 0.1% NP-40, 0.1 mg/mL BSA, 1 mM DTT, 1 ug/uL poly dG:dC, 2 nM probe, 30 C 15 min; 4% acrylamide gel, 0.5X TGE; details: protein: recombinant;recombinant; tags: 6xHis (pSKB3-6H-TEV);6xHis (pSKB3-6H-TEV); copies: 1;1; label: Cy5 on strand 2 (extended primer S1); blunt
# OCT4;SOX2, sequence (Q01860 whole entry, chain 1 of 2): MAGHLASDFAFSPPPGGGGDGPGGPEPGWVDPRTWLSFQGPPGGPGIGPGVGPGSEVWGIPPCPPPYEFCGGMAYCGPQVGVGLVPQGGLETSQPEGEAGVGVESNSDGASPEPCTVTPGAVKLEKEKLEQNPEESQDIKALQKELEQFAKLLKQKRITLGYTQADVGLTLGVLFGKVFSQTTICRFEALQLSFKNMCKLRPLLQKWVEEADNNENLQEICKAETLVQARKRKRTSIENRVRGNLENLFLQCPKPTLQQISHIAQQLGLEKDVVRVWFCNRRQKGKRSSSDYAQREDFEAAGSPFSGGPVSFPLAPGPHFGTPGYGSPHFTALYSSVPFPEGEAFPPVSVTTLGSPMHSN
# OCT4;SOX2, sequence (P48431 whole entry, chain 2 of 2): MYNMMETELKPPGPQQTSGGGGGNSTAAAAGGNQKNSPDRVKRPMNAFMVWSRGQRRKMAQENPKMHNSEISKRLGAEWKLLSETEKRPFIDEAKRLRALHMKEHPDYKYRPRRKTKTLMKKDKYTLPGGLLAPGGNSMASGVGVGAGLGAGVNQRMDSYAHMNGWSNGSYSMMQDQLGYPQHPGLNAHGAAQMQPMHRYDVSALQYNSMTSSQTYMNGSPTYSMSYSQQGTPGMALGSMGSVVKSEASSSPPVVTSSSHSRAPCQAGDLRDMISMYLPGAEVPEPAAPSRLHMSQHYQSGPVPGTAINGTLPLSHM
# OCT4 = OCT4 (human, UniProt Q01860 1-360); test: EMSA; 19 nM OCT4; OCT4-only band is the majority of shifted DNA in the OCT4 + SOX2 reaction; 12.5 mM K-Hepes pH 7.6, 50 mM NaCl, 1 mM MgCl2, 10% glycerol, 0.1% NP-40, 0.1 mg/mL BSA, 1 mM DTT, 1 ug/uL poly dG:dC, 2 nM probe, 30 C 15 min; 4% acrylamide gel, 0.5X TGE; details: protein: recombinant; tags: 6xHis (pSKB3-6H-TEV); label: Cy5 on strand 2 (extended primer S1); blunt
# OCT4, sequence (Q01860 whole entry): as the sequence (Q01860 whole entry, chain 1 of 2) above
Binder,binding result (OCT4;SOX2),binding result (OCT4)
B1,binds,–
B2,–,binds
